Consider one molecule from paper PMC10567788, “Asymmetric gating of a human hetero-pentameric glycine receptor” (Nature Communications, 2023).

The target in data set [1] is human glycine receptor β subunit, cryo-EM construct βem (human). Briefly: cryo-EM structure; α1emβem GlyR co-expressed and co-purified through the PA tag on βem; single-particle cryo-EM in 0.06% digitonin, 20 mM Tris pH 8.0, 200 mM NaCl; apo and with 2 mM glycine (states apo, gly-1 open, gly-2 expanded open, gly-3 desensitized).
Sequence of human glycine receptor β subunit, cryo-EM construct βem (human) (P48167 whole entry): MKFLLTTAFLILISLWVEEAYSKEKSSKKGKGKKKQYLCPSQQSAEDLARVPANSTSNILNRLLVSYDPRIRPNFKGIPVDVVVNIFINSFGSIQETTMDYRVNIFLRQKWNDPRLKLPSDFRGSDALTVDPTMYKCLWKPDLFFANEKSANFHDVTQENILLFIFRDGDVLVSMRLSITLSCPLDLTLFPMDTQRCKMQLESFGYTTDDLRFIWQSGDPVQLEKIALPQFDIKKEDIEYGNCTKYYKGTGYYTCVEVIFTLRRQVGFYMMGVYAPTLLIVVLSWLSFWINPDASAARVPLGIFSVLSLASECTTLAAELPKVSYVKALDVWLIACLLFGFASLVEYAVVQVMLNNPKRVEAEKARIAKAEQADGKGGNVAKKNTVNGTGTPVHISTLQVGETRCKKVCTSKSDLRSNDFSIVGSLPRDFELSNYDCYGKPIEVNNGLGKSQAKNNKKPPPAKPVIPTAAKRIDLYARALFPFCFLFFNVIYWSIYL
Data set [2] concerns the molecule itself. The description is as above.

B1: human glycine receptor α1 subunit, cryo-EM construct α1em (receptor)
chain: ARSAPKPMSPSDFLDKLMGRTSGYDARIRPNFKGPPVNVSCNIFINSFGSIAETTMDYRVNIFLRQQWNDPRLAYNEYPDDSLDLDPSMLDSIWKPDLFFANEKGAHFHEITTDNKLLRISRNGNVLYSIRITLTLACPMDLKNFPMDVQTCIMQLESFGYTMNDLIFEWQEQGAVQVADGLTLPQFILKEEKDLRYCTKHYNTGKFTCIEARFHLERQMGYYLIQMYIPSLLIVILSWISFWINMDAAPARVGLGITTVLTMTTQSSGSRASLPKVSYVKAIDIWMAVCLLFVFSALLEYAAVNFVSRQHKELLGSSGEEMRKLFIQRAKKIDKISRIGFPMAFLIFNMFYWIIYKIVRREDVHNQ
notes: human glycine receptor α1, NCBI NP_001139512.1, the part before the M3/M4 loop (residues up to L315); linker that replaces the M3/M4 loop residues R316-P381; human glycine receptor α1, NCBI NP_001139512.1, the part after the replaced M3/M4 loop (E382 to the C-terminal Q429); Four copies stand in each α1emβem pentamer; also called GlyR α1; α subunit; source: HEK293S GnTI- cells, BacMam baculovirus …
Consider B1, for which the stoichiometry N (α1 subunits per β subunit) in data set [1] came to 4. The binding result in data set [2] is “binds”.
